{"source": "paper PMC7589338", "about": "“The strawberry transcription factor FaRAV1 positively regulates anthocyanin accumulation by activation of FaMYB10 and anthocyanin pathway genes”", "binders": {"B1": {"name": "FaMYB10 promoter mutant probe (dsDNA)", "DNA 1": "AGGGTGGGGACTCGACAGTTTTTAGCTAACTTCCACATGCAATGGATCGAAAT", "DNA 2": "ATTTCGATCCATTGCATGTGGAAGTTAGCTAAAAACTGTCGAGTCCCCACCCT"}}, "target": "T1, FaRAV1 (Fragaria × ananassa, UniProt A0A3Q8TB28 1-301)", "T1 sequence": "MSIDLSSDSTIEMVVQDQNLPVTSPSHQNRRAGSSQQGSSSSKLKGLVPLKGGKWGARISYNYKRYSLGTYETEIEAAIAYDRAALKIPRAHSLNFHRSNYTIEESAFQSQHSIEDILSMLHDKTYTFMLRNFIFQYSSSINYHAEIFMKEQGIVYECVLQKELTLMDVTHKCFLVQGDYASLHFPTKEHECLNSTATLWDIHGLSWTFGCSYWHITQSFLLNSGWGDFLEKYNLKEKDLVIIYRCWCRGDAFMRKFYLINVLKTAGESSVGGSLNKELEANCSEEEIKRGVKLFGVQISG", "assay": "EMSA; 8 nM biotinylated probe; LightShift Chemiluminescent EMSA kit (Thermo), per manufacturer and Ge et al. 2017; 8 nM biotin probe; binding buffer, pH and temperature not stated", "details": "protein: recombinant; tags: His (pET-32a; described as N-terminal FaRAV1-His fusion); label: 3'-biotin; blunt"}
{"binder": "B1", "values": [{"measurement": "binding result", "value": "no binding"}]}
